This note sets out measurements from PMC3042988, “The activation mechanism of Irga6, an interferon-inducible GTPase contributing to mouse resistance against Toxoplasma gondii” (BMC Biology, 2011).

B1: Irga6 (IIGP1), wild type, recombinant, GST cleaved off [mouse] / itself (parent)
chain: MGQLFSSPKSDENNDLPSSFTGYFKKFNTGRKIISQEILNLIELRMRKGNIQLTNSAISDALKEIDSSVLNVAVTGETGSGKSSFINTLRGIGNEEEGAAKTGVVEVTMERHPYKHPNIPNVVFWDLPGIGSTNFPPNTYLEKMKFYEYDFFIIISATRFKKNDIDIAKAISMMKKEFYFVRTKVDSDITNEADGKPQTFDKEKVLQDIRLNCVNTFRENGIAEPPIFLLSNKNVCHYDFPVLMDKLISDLPIYKRHNFMVSLPNITDSVIEKKRQFLKQRIWLEGFAADLVNIIPSLTFLLDSDLETLKKSMKFYRTVFGVDETSLQRLARDWEIEVDQVEAMIKSPAVFKPTDEETIQERLSRYIQEFCLANGYLLPKNSFLKEIFYLKYYFLDMVTEDAKTLLKEICL

One assay covers variants of B1. Briefly: light scattering (homo-oligomerisation). The settings on record: with itself; 80 µM Irga6; 10 mM GTP; 37°C; peak of the time course, at about 10 min; read off a plot.
As to MGQLFSSPKSDENNDLPSSFTGYFKKFNTGRKIISQEILNLIELRMRKGNIQLTNSAISDALKEIDSSVLNVAVTGETGSGKSSFINTLRGIGNEERGAAKTGVVEVTMERHPYKHPNIPNVVFWDLPGIGSTNFPPNTYLEKMKFYEYDFFIIISATRFKKNDIDIAKAISMMKKEFYFVRTKVDSDITNEADGKPQTFDKEKVLQDIRLNCVNTFRENGIAEPPIFLLSNKNVCHYDFPVLMDKLISDLPIYKRHNFMVSLPNITDSVIEKKRQFLKQRIWLEGFAADLVNIIPSLTFLLDSDLETLKKSMKFYRTVFGVDETSLQRLARDWEIEVDQVEAMIKSPAVFKPTDEETIQERLSRYIQEFCLANGYLLPKNSFLKEIFYLKYYFLDMVTEDAKTLLKEICL [chain 1 E97R], the response is 9 a. u.

The assay is the same for the next values; noted with them: with itself; 80 µM Irga6; 10 mM GTP; 37°C; peak of the time course, at about 15 min; read off a plot.
With MGQLFSSPKSDENNDLPSSFTGYFKKFNTGRKIISQEILNLIELRMRKGNIQLTNSAISDALKKIDSSVLNVAVTGETGSGKSSFINTLRGIGNEEEGAAKTGVVEVTMERHPYKHPNIPNVVFWDLPGIGSTNFPPNTYLEKMKFYEYDFFIIISATRFKKNDIDIAKAISMMKKEFYFVRTKVDSDITNEADGKPQTFDKEKVLQDIRLNCVNTFRENGIAEPPIFLLSNKNVCHYDFPVLMDKLISDLPIYKRHNFMVSLPNITDSVIEKKRQFLKQRIWLEGFAADLVNIIPSLTFLLDSDLETLKKSMKFYRTVFGVDETSLQRLARDWEIEVDQVEAMIKSPAVFKPTDEETIQERLSRYIQEFCLANGYLLPKNSFLKEIFYLKYYFLDMVTEDAKTLLKEICL [chain 1 E64K], the response amounted to 8.2 a. u.
